Source: the supplement of paper PMC10126150
± gives the standard deviation of the averaged measurements.

tested on: ATP; assay: switch fluorescence ratio, 500 uM ATP over buffer (Cy3 cluster intensity, sum of 5 cycles each) (fold (ratio)); higher = stronger signal-on switching upon ATP binding; sequences stand for … in TCGTCGGCAGCGTCAGATGTGTATAAGAGACAGTTTTTTTTTTTTTTTTTTTTTTTTT…TC; details: aptamer strand: ATP DNA aptamer (quencher-CACCTGGGGGAGTATTGCGGAGGAAGG + anchor), 100 nM annealed; ATP concentration: 500 uM
Method in brief: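 After annealing to 100 nM quencher-labelled ATP aptamer, Cy3-labelled switching-strand clusters on a modified Illumina MiSeq flow-cell were imaged in selection buffer. A second image followed after 15 min with 500 uM ATP at 22 °C, and five such buffer/ATP cycles were done, each separated by NaOH stripping and re-annealing. The fluorescence ratio, averaged per switch-domain sequence, is summed target-cycle over summed buffer-cycle Cy3 intensity per cluster, with clusters outside 100-1000 RFU excluded.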
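Note: ATP exposure 15 min at 22 °C before imaging.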

Row | Sequence | switch fluorescence ratio
1 | AGATGAGTGT | 1 ± 0.02
2 | AGATGATCAG | 0.982 ± 0.02
3 | AGATGCATGG | 1.02 ± 0.025
4 | AGATGCCATG | 1.032 ± 0.0075
5 | AGATGCCGAC | 1.02 ± 0.054
6 | AGATGCGGTA | 1.01 ± 0.029
7 | AGATGCTGGT | 0.994 ± 0.015
8 | AGATGGGGGG | 1.02 ± 0.033
9 | AGATGGGGGT | 1.016 ± 0.0053
10 | AGATGGTAGG | 0.986 ± 0.023
11 | AGATGTAGTG | 0.9948 ± 0.0036
12 | AGATGTCTAC | 0.989 ± 0.018
13 | AGATTAGCGC | 0.9812 ± 0.0063
14 | AGATTATGGG | 0.974 ± 0.033
15 | AGATTGTTGG | 0.989 ± 0.019
16 | AGATTGTTTA | 0.981 ± 0.019
17 | AGATTTAGAG | 1.011 ± 0.0032
18 | AGATTTCGGC | 1.039 ± 0.0015
19 | AGATTTTCTG | 1.01 ± 0.025
20 | AGCAAAATGG | 1.0258 ± 0.00022
21 | AGCAAACTTG | 1.04 ± 0.049
22 | AGCAAAGAGC | 0.99 ± 0.037
23 | AGCAAATTCT | 1.16 ± 0.072
24 | AGCAACCTTT | 1.16 ± 0.039
25 | AGCACGCACA | 1.77 ± 0.06

Row | Sequence | switch fluorescence ratio
26 | AGCACGTTTT | 1.01 ± 0.025
27 | AGCAGAGGAC | 0.971 ± 0.058
28 | AGCAGCGCGG | 1.04 ± 0.042
29 | AGCAGTGGAC | 1.23 ± 0.016
30 | AGCAGTTTTT | 0.996 ± 0.028
31 | AGCATGATGG | 1.04 ± 0.021
32 | AGCATGGCTG | 1.01 ± 0.001
33 | AGCATGGGAG | 0.991 ± 0.034
34 | AGCATGTCTG | 0.986 ± 0.01
35 | AGCATTTTCA | 1.24 ± 0.32
36 | AGCCAGAAGT | 0.991 ± 0.022
37 | AGCCAGGTGG | 1.27 ± 0.14
38 | AGCCATATTT | 1.04 ± 0.028
39 | AGCCATGGCT | 0.9927 ± 0.0099
40 | AGCCATGTGA | 1.01 ± 0.011
41 | AGCCATTTGT | 1.015 ± 0.0063
42 | AGCCCCTTAG | 1.002 ± 0.0065
43 | AGCCCTAAGG | 0.979 ± 0.045
44 | AGCCCTGGGG | 1.02 ± 0.011
45 | AGCCGGCTGC | 1.03 ± 0.024
46 | AGCCGGGTAT | 1.01 ± 0.016
47 | AGCCGGTTCC | 1.014 ± 0.0092
48 | AGCCTCTATA | 1.012 ± 0.0066
49 | AGCCTGCCCT | 1.067 ± 0.0053
50 | AGCCTGGGGA | 1.001 ± 0.0018

Row | Sequence | switch fluorescence ratio
51 | AGCCTGGTGG | 1.05 ± 0.013
52 | AGCCTGTTTT | 0.9861 ± 0.0011
53 | AGCCTTGGGA | 1 ± 0.024
54 | AGCGAAAGGA | 1.01 ± 0.023
55 | AGCGAAATTT | 1.04 ± 0.023
56 | AGCGACGGAG | 0.966 ± 0.024
57 | AGCGAGAGGG | 0.974 ± 0.031
58 | AGCGAGGGGG | 1.03 ± 0.032
59 | AGCGAGTTGG | 0.958 ± 0.039
60 | AGCGCCGGGG | 1.03 ± 0.015
61 | AGCGCCTTTG | 0.9905 ± 0.0024
62 | AGCGCGCGGC | 0.998 ± 0.013
63 | AGCGCGGGGG | 1.002 ± 0.006
64 | AGCGGAGTTT | 0.984 ± 0.031
65 | AGCGGATGTG | 0.978 ± 0.027
66 | AGCGGATTAA | 1.016 ± 0.0017
67 | AGCGGCACAC | 1.073 ± 0.0095
68 | AGCGGCCCGG | 1.02 ± 0.017
69 | AGCGGGGGCT | 0.997 ± 0.045
70 | AGCGGGTTAA | 1.017 ± 0.0096
71 | AGCGGTAGGG | 1.022 ± 0.0082
72 | AGCGGTCGGC | 1.04 ± 0.018
73 | AGCGGTCTAT | 1.021 ± 0.005
74 | AGCGGTTCGC | 0.9931 ± 0.0056
75 | AGCGTCAGCC | 0.99 ± 0.05

Row | Sequence | switch fluorescence ratio
76 | AGCGTCAGTA | 0.999 ± 0.014
77 | AGCGTGTGTG | 1.05 ± 0.059
78 | AGCGTTGATG | 1.01 ± 0.03
79 | AGCGTTTGGG | 1.0289 ± 0.001
80 | AGCTAATCGT | 1.01 ± 0.014
81 | AGCTACGGTG | 1.044 ± 0.0052
82 | AGCTAGCGTT | 0.997 ± 0.024
83 | AGCTAGGGTC | 1.05 ± 0.049
84 | AGCTATTTGC | 0.983 ± 0.048
85 | AGCTCATGTG | 0.988 ± 0.026
86 | AGCTCGGTCG | 0.963 ± 0.017
87 | AGCTCTGACG | 1.02 ± 0.024
88 | AGCTCTGGCC | 0.961 ± 0.04
89 | AGCTGAAGAC | 1.25 ± 0.097
90 | AGCTGCAGTG | 1.02 ± 0.019
91 | AGCTGGGCTC | 1.07 ± 0.016
92 | AGCTGGGTCC | 1.04 ± 0.041
93 | AGCTGGTCCG | 1.02 ± 0.022
94 | AGCTGTGAC | 1.07 ± 0.04
95 | AGCTTAAGGG | 0.967 ± 0.02
96 | AGCTTATGGT | 0.962 ± 0.049
97 | AGCTTCAGGG | 1.01 ± 0.037
98 | AGCTTCAGTC | 1 ± 0.03
99 | AGCTTGAGGT | 0.9941 ± 0.0019
100 | AGCTTGGAAA | 1 ± 0.031

Row | Sequence | switch fluorescence ratio
101 | AGCTTGGGAA | 0.9627 ± 0.0063
102 | AGCTTTAGAC | 1.09 ± 0.021
103 | AGCTTTCCTA | 0.9963 ± 0.007
104 | AGCTTTCGCG | 0.99 ± 0.03
105 | AGCTTTCTAT | 0.976 ± 0.011
106 | AGCTTTTCTT | 1.03 ± 0.017
107 | AGCTTTTGGG | 0.979 ± 0.071
108 | AGCTTTTTTG | 1.024 ± 0.0039
109 | AGGAAAAAAG | 1 ± 0.032
110 | AGGAAAAAGG | 0.974 ± 0.034
111 | AGGAAAAAGT | 1.02 ± 0.039
112 | AGGAAAAATA | 0.988 ± 0.053
113 | AGGAAAATGG | 1 ± 0.021
114 | AGGAAAATTT | 1 ± 0.047
115 | AGGAAACCCG | 0.994 ± 0.064
116 | AGGAAATAGT | 1.05 ± 0.059
117 | AGGAAATTGT | 1.01 ± 0.059
118 | AGGAAGAACG | 1.04 ± 0.02
119 | AGGAAGGCAC | 1.05 ± 0.016
120 | AGGAAGTTAG | 0.961 ± 0.022
121 | AGGAATAAAC | 1.02 ± 0.013
122 | AGGAATATGG | 1.04 ± 0.1
123 | AGGAATTTGT | 1.035 ± 0.0091
124 | AGGACCAGGT | 1.02 ± 0.025
125 | AGGACCAGTT | 1.03 ± 0.055

Row | Sequence | switch fluorescence ratio
126 | AGGACGAGGG | 0.983 ± 0.013
127 | AGGACTGAAG | 0.989 ± 0.07
128 | AGGACTTTAG | 0.943 ± 0.091
129 | AGGAGAAAAG | 1.22 ± 0.29
130 | AGGAGATACC | 1.03 ± 0.049
131 | AGGAGATTAG | 0.978 ± 0.029
132 | AGGAGCATTT | 1.04 ± 0.045
133 | AGGAGGAGGG | 0.932 ± 0.021
134 | AGGAGGCAGG | 1.03 ± 0.011
135 | AGGAGGCGCG | 1.05 ± 0.1
136 | AGGAGGGCTC | 1.01 ± 0.11
137 | AGGAGGTGGC | 1.03 ± 0.017
138 | AGGAGGTGTC | 1.06 ± 0.11
139 | AGGAGTACCA | 1.04 ± 0.015
140 | AGGAGTGGAG | 0.996 ± 0.013
141 | AGGAGTGTCG | 1.04 ± 0.039
142 | AGGATAAGGA | 0.987 ± 0.029
143 | AGGATAATGA | 0.998 ± 0.03
144 | AGGATCGAGG | 1.02 ± 0.028
145 | AGGATCGTCA | 0.9893 ± 0.0038
146 | AGGATGAAAG | 0.9896 ± 0.0034
147 | AGGATGAATA | 0.9974 ± 0.0019
148 | AGGATGCATT | 1.8 ± 1.1
149 | AGGATGGACG | 1.02 ± 0.064
150 | AGGATGGGGG | 0.997 ± 0.045

Row | Sequence | switch fluorescence ratio
151 | AGGATGGTTC | 0.9541 ± 0.0016
152 | AGGATTCGGG | 1.01 ± 0.021
153 | AGGCAAACCC | 1.0669 ± 0.00051
154 | AGGCAACCAC | 1.23 ± 0.033
155 | AGGCAGGGGA | 1.03 ± 0.025
156 | AGGCCAGGGT | 1.04 ± 0.021
157 | AGGCCATTGG | 1.04 ± 0.024
158 | AGGCCCTGTT | 0.989 ± 0.028
159 | AGGCCGGGGT | 1.01 ± 0.055
160 | AGGCGACTAT | 1 ± 0.011
161 | AGGCGAGGGA | 1.02 ± 0.0049
162 | AGGCGAGTTA | 0.9937 ± 0.0054
163 | AGGCGATTTA | 0.976 ± 0.022
164 | AGGCGCAGTG | 1.04 ± 0.054
165 | AGGCGCCGCA | 1.01 ± 0.018
166 | AGGCGCGGGT | 0.998 ± 0.069
167 | AGGCGGGCGA | 1.02 ± 0.05
168 | AGGCGGGCGT | 0.9623 ± 0.0022
169 | AGGCGGGTGA | 1.02 ± 0.013
170 | AGGCGGTATC | 1.047 ± 0.0025
171 | AGGCGGTTTG | 0.985 ± 0.034
172 | AGGCGTAAAT | 0.997 ± 0.029
173 | AGGCGTAGCT | 1.01 ± 0.044
174 | AGGCTAAGAT | 1.0077 ± 0.001
175 | AGGCTAGCGG | 1.01 ± 0.019

Row | Sequence | switch fluorescence ratio
176 | AGGCTAGTGG | 0.993 ± 0.035
177 | AGGCTGAGCT | 0.979 ± 0.051
178 | AGGCTGCAGT | 1.013 ± 0.007
179 | AGGCTGGAGG | 1.01 ± 0.038
180 | AGGCTTGGGC | 0.971 ± 0.012
181 | AGGGAAATGA | 0.987 ± 0.024
182 | AGGGAAGGTT | 0.982 ± 0.022
183 | AGGGAATAAA | 1 ± 0.031
184 | AGGGAATAGC | 1.01 ± 0.011
185 | AGGGAATCGT | 0.9953 ± 0.0013
186 | AGGGAATGTT | 0.972 ± 0.033
187 | AGGGAATTGT | 1 ± 0.037
188 | AGGGACCTTA | 1.04 ± 0.05
189 | AGGGACTAGG | 0.994 ± 0.011
190 | AGGGAGCGCG | 0.995 ± 0.011
191 | AGGGAGGCGG | 0.974 ± 0.032
192 | AGGGAGGGGA | 1.03 ± 0.061
193 | AGGGAGGTGC | 1.02 ± 0.051
194 | AGGGAGGTTA | 0.972 ± 0.06
195 | AGGGAGTACA | 1.01 ± 0.013
196 | AGGGAGTTGC | 1.03 ± 0.038
197 | AGGGATACCG | 1.01 ± 0.066
198 | AGGGATCGTC | 0.987 ± 0.014
199 | AGGGATGGGT | 0.976 ± 0.0026
200 | AGGGATTAA | 0.99 ± 0.054
